Source: PMC4881023, “SALM5 trans-synaptically interacts with LAR-RPTPs in a splicing-dependent manner to regulate synapse development” (Scientific Reports, 2016)

Key:
[1] = target: SALM5 (untagged) (not stated (mouse and human SALM5 are named for other constructs)) (UniProt Q8BXA0); experiment: quantitative cell-surface binding assay (HRP anti-human Fc, Scatchard analysis); apparent; SALM5 (untagged)-expressing HEK293T cells in 96-well plates, fixed, incubated with increasing concentrations of LAR-Ecto-Fc for 1 hour, HRP-conjugated anti-human-Fc, TMB colour reaction
hySALM5-Ecto-Fc = target: T1, hySALM5-Ecto-Fc ( | human, UniProt Q96NI6 59-374); experiment: BLI; BLItz; hySALM5-Ecto-Fc pre-bound to protein A biosensors, LAR-Ig-FN12 as analyte at three concentrations; 20 mM HEPES, 50 mM NaCl, pH 7.0; global fit; conditions: both partners purified
T1 chain: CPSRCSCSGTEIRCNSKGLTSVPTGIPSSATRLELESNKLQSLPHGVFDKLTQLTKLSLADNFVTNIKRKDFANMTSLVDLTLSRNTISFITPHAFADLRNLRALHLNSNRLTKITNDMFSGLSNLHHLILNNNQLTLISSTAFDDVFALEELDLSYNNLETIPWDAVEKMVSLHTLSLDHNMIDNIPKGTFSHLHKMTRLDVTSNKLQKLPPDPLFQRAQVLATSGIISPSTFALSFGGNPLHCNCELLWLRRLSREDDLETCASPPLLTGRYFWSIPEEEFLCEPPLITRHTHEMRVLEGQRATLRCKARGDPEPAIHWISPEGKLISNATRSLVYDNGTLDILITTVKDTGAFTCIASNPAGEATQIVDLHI

[2] = target: T2, LAR-Ig (Ig1-3)-Fc of the BLI (human, UniProt P10586 30-318); experiment: BLI; BLItz; 10 μM LAR-Ig (Ig1-3)-Fc or LAR-FN12-Fc immobilised on protein A biosensors for 120 s, hybrid SALM5-Ecto as analyte at three concentrations; 20 mM HEPES, 50 mM NaCl, pH 7.0; global fit; conditions: both partners purified
T2 chain: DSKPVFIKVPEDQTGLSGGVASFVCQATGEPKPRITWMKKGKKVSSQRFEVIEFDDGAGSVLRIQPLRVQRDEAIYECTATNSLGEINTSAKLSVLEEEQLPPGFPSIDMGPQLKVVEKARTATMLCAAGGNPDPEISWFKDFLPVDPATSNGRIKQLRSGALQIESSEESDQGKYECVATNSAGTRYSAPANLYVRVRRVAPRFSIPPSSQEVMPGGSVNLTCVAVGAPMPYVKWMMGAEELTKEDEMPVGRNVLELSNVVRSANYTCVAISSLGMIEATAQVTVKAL

Chain of SALM5 (untagged) (not stated (mouse and human SALM5 are named for other constructs)) (Q8BXA0 18-719): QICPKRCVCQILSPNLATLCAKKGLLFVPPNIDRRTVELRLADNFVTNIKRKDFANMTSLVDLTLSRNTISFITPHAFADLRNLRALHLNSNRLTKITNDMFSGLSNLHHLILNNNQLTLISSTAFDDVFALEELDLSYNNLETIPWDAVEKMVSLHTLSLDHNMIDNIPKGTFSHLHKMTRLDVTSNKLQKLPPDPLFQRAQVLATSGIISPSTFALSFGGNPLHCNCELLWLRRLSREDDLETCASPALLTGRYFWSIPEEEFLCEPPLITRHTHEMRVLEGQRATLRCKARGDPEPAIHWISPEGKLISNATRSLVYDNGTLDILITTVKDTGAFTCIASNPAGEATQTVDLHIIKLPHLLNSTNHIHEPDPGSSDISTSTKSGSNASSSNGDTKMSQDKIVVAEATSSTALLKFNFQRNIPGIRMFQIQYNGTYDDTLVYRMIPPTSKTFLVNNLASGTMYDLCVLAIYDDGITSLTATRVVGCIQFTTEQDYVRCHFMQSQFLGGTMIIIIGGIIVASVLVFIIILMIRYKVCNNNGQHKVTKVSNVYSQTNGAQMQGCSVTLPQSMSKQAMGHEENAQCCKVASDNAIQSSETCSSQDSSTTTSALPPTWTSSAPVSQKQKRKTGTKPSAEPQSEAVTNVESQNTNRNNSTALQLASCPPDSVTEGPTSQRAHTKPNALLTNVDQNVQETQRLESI

LAR-Ecto-Fc (meA^− and meB^−) (from UniProt P10586 30-1263) (Fc fusion)
Kd [1]: 0.00896 µM

B1: LAR-Ig-FN12 (Ig1-3-FNIII12, aa 27A–513A) (domain or fragment)
chain: AHGDSKPVFIKVPEDQTGLSGGVASFVCQATGEPKPRITWMKKGKKVSSQRFEVIEFDDGAGSVLRIQPLRVQRDEAIYECTATNSLGEINTSAKLSVLEEEQLPPGFPSIDMGPQLKVVEKARTATMLCAAGGNPDPEISWFKDFLPVDPATSNGRIKQLRSGALQIESSEESDQGKYECVATNSAGTRYSAPANLYVRVRRVAPRFSIPPSSQEVMPGGSVNLTCVAVGAPMPYVKWMMGAEELTKEDEMPVGRNVLELSNVVRSANYTCVAISSLGMIEATAQVTVKALPKPPIDLVVTETTATSVTLTWDSGNSEPVTYYGIQYRAAGTEGPFQEVDGVATTRYSIGGLSPFSEYAFRVLAVNSIGRGPPSEAVRARTGEQAPSSPPRRVQARMLSASTMLVQWEPPEEPNGLVRGYRVYYTPDSRRPPNAWHKHNTDAGLLTTVGSLLPGITYSLRVLAFTAVGDGPPSPTIQVKTQQGVPA
modifications: splice form not given; A-B- form taken because the printed limits fit the P10586 numbering (no meA, no meB) / C-terminal Fc carrier omitted (the Fc would dimerise the chain); VLRB.61 signal peptide
Kd (hySALM5-Ecto-Fc): 38.5 µM

B2: hySALM5-Ecto (hybrid SALM5, LRR + Ig domains), tag cleaved (domain or fragment)
chain: CPSRCSCSGTEIRCNSKGLTSVPTGIPSSATRLELESNKLQSLPHGVFDKLTQLTKLSLADNFVTNIKRKDFANMTSLVDLTLSRNTISFITPHAFADLRNLRALHLNSNRLTKITNDMFSGLSNLHHLILNNNQLTLISSTAFDDVFALEELDLSYNNLETIPWDAVEKMVSLHTLSLDHNMIDNIPKGTFSHLHKMTRLDVTSNKLQKLPPDPLFQRAQVLATSGIISPSTFALSFGGNPLHCNCELLWLRRLSREDDLETCASPPLLTGRYFWSIPEEEFLCEPPLITRHTHEMRVLEGQRATLRCKARGDPEPAIHWISPEGKLISNATRSLVYDNGTLDILITTVKDTGAFTCIASNPAGEATQIVDLHI
modifications: VLRB.61 printed as M1-L82; signal peptide (1-23) taken as removed on secretion; hagfish accession not among the candidates; LVPR residue left by thrombin cleavage omitted / A-B- form taken as stated …
Kd [2]: 16.6 µM
